Reference: patent US20230087600A1
One block for each binder: values may come before it.

Target: T1, mouse IL-10 receptor (IL-10R) on T cells and B cells of C57BL/6 mouse splenocytes (mouse) (UniProt Q61727)
T1 sequence (looked up) 1: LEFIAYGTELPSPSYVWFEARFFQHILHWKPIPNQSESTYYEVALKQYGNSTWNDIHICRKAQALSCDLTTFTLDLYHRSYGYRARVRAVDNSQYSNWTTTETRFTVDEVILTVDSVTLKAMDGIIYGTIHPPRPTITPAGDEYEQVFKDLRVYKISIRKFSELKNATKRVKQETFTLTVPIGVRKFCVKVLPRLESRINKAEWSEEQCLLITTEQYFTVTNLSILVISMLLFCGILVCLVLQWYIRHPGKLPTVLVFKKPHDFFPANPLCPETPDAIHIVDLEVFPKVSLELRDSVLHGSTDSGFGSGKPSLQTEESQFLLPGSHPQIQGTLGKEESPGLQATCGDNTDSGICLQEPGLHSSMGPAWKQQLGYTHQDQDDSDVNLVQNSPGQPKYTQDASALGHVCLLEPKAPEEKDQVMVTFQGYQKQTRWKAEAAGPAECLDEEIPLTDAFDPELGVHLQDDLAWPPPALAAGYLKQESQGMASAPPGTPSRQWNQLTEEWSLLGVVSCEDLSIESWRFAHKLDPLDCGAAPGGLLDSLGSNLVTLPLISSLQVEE
T1 sequence (looked up) 2: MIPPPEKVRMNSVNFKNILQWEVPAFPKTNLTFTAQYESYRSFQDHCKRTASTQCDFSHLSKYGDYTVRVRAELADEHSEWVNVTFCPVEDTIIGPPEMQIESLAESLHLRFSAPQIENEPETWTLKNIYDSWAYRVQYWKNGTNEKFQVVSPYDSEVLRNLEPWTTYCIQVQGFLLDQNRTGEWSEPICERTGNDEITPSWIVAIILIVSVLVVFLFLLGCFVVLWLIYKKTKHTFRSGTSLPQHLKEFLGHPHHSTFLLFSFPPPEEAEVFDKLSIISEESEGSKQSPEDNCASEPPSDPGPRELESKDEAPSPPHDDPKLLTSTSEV
Experiment: cell-based or functional assay

STAT3 phosphorylation (pY705), flow cytometry, B cells of C57BL/6 mouse splenocytes (CD19 + B cells), EC50: 55.3 pM | STAT3 phosphorylation (pY705), flow cytometry, CD3+ T cells of C57BL/6 mouse splenocytes, EC50: 91.4 pM
B1: mouse IL-10 (ligand, UniProt P18893 19-178, looked up)
chain: SRGQYSREDNNCTHFPVGQSHMLLELRTAFSQVKTFFQTKDQLDNILLTDSLMQDFKGYLGCQALSEMIQFYLVEVMPQAEKHGPEIKEHLNSLGEKLKTLRMRLRRCHRFLPCENKSKAVEQVKSDFNKLQDQGVYKAMNEFDIFINCIEAYMMIKMKS

STAT3 phosphorylation (pY705), flow cytometry, B cells of C57BL/6 mouse splenocytes (CD19 + B cells), EC50: 120 pM | STAT3 phosphorylation (pY705), flow cytometry, CD3+ T cells of C57BL/6 mouse splenocytes, EC50: 390 pM
B2: 5KPEG-mIL-10 (ligand, mouse, UniProt P18893 19-178, looked up)
chain: B1 chain
modifications: conjugated to 5 kD PEG; site of attachment not stated
